Test results taken from the DeepSol protein solubility set.

assay: soluble on expression in E. coli; label from the status in PepcDB or PDB records

Soluble on expression in E. coli, not soluble:
MGSDKIHHHHHHAQVKTYKYRVNFRDKAETTYALDKPSAYLSERALERRMKQGLPVDSTDIPVCRSYIDMLVGKGAQLVSKSKWNNTVVVQVSDTSVIDKVAALPFVTAVRKVWTAPDSIPARNANRKKEVTNRVTKSNNYYGDAWRQIAVHHGDSLHAAGFRGKGMQIAVIDAGFYNADEISVFKGMDLLGTRDFVNSHSDIYAENYHGMKVLSCMAANKPNVLVGTAPEASYWLLRSEDDDTEQPVEEDYWAEALEFADSVGVDVVNTSLGYYEFDDTTMNYRYRDLDGHYSLMSHSASLAADKGLVLVCSAGNSGRGTWKKITPPGDAENVITVGAADRNLVNADFSSVGNTTDGRVKPDVMAVGVASAVAGNDGTVSHANGTSFASPTLCGLVACFWQACPWLTAKQVVEAVRNAGDRKEYPDNIYGYGVPDIWKACQIELEKKK
MKYAVLIGDGMADYPIEELGSRTILQAARTPAMDSIAARGKTGLAKTVPEGFPPGSDVANMSIFGYDPAIYYSGRAPLEAASMGVALAADDVAFRCNLITIENGKIKDYSAGHISSDEAEILIDTLDSELRTEKVRFYPGISYRHLIVAGNDLGAETECTPPHDITGERKDDYLPRGKDGEFFSGLIEASTVVLELHPVNLKRVQEGKNPANSIWVWGQGYAPKFKTFQELYGKSGAIISAVDLLKGIGIYAGLDVIEVPGATGYLDTNYEGKASAAIEALKTRDLVFVHVEAPDEAGHEGSLEKKMKAIEDFDSRIVSPILKHAEASDETFTILVLPDHPTPISVKTHTRDPIPFAIYRTDAADPDGVEYFDEESVKNGSMGLVKASDLIGMLVKVLEHHHHHH
MGSDKIHHHHHHMQGKKFISPGAWFSMNYPSDWNEFEDGEGSFLFYNPDVWTGNFRISAFKGNASYGKDAIRQELKENDSASLVKIGTWDCAYSKEMFQEEGTYYTSHLWITGTGNIAFECSFTVPKGGSAKEAEEVIATLEARKEGEKYPAELIPVRLSEIYQINEGYEWVVSTVKQELKKDFQGVEEDLEKIQQVIDSGKISPKKKDEWLAIGITVCAILTNEVEGMEWKTLIDGNREVPVLEYQGRTIDPMKIAWSKVKAGQPCNIAEAYQSAIDHH
LDLNNPQYNDVYEINYDFIYSLRNIMDYVVRGDEWALDDYYEALDIRNDDLRWVLSDVQYRRFLGAEYFYRPIYVTGGRWNFRIYINYPNRSLFYFGVPYHYRTYCGAHYRPHIHHVSYYRGRYNNLVHYPTPYRVRDQRVFHSYRRSDFGSVRFRPNTSVRPHNAPTRPGTSGRPGTTSR
NLHLLEYLHILPLDKIGIPKFAPKLDRKKHGDLDRPNLIYPADEQIYIHVYPDKNDMRNFYIPIEPTLLTGVDELLKEVEIRLVDYITDIDF
MGSDKIHHHHHHMNHIGTREIATERLTLRRFEIEDAENMFYNWANDPEVTKYLTWPAHESVDTTETILKEWISKYDEKDFYQWAIELNDLEQPIGTISAIKTDERVESVEIGYCIGKRFWNNGYMTEALTAIIRFFINEVGAGRIWARHDTENPNSGKVMVAAGMDYEGTLRHAGFNNQGICDEAVYAKVRSAALDEEPEEETPEQQAVTTKVMGEDGVMRNVISDETMEYVGILAKLELSPEEAEAAKKDMADMLDYIDKLEELDTSGIEPMSHVFPVNNVFRDDVVTNGDGSEATLANAPVKKDGGFKVPKTIGE
MGSDKIHHHHHHMQVIKQKLTATCAQLTGYLHQPDTNAHQTNLPAIIIVPGGSYTHIPVAQAESLAMAFAGHGYQAFYLEYTLLTDQQPLGLAPVLDLGRAVNLLRQHAAEWHIDPQQITPAGFSVGGHIVALYNDYWATRVATELNVTPAMLKPNNVVLGYPVISPLLGFPKDDATLATWTPTPNELAADQHVNSDNQPTFIWTTADDPIVPATNTLAYATALATAKIPYELHVFKHGPHGLALANAQTAWKPDANQPHVAHWLTLALEWLADNR
VFIEERLEELSTFADSSDLTKIEYGNKKIGIITSGIAYNYAKEVIPDASFLKFGMSYPLPEEKIKEFVENCDKVYVFEELEPIFEQKIKSMGLNVIGKEIFPIIGELSSEIIRNALLNESKEVIDKFDELPQRPPVLCPGCHHRGPFYVLKKLKLHVAGDIGCYTLGGFGPLNAIDTTICMGASIGMAH
